Data: patent US20250154283A1 (published 2025)

T1: biotinylated cynomolgus monkey VWF cysteine knot (CK) domain construct (cynomolgus monkey, biotinylated in vitro (BirA) on the biotinylation tag; one N-glycan)
T1 construct: Expressed in HEK293 EBNA cells; disulfide-linked homodimer; also called cyno VWF CK; cyno VWF CK domain; not shown: in vitro biotinylation tag, HRV-3C site and 3 VWF residues before the CK domain
T1 chain: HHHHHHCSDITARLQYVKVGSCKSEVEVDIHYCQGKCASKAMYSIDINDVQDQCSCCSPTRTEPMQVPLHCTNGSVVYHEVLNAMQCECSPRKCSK


What was measured:
[1] = biological target: T2, biotinylated human VWF cysteine knot (CK) domain construct (human, UniProt P04275 2724-2813, biotinylated in vitro (BirA) on the biotinylation tag; one N-glycan); experiment: SPR, scFv captured via anti-SV5, CK domain injected, pH 5.5, apparent Kd;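 further: scFvs from crude yeast supernatants captured on chip-bound anti-SV5 antibody, Kd computed as koff divided by kon, dimeric CK construct likely makes affinity appear higher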
T2 construct: Expressed in HEK293 EBNA cells; disulfide-linked homodimer; also called human VWF CK; human VWF CK domain; not shown: in vitro biotinylation tag, HRV-3C site and 3 VWF residues before the CK domain

[2] = biological target: T1, biotinylated cynomolgus monkey VWF …; experiment: SPR, scFv captured via anti-SV5, CK domain injected, pH 7.4, apparent Kd;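 further: scFvs from crude yeast supernatants printed on an amine-coupled anti-SV5 lawn, Kd computed as koff over kon, likely overestimating affinity because the CK construct is dimeric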
From the text: (§1) Briefly, a sensor chip was activated and coupled with an anti-SV5 mouse monoclonal antibody using amine coupling. The soluble scFvs in crude yeast supernatants were printed on the anti-SV5 lawn. […] From the measured association (kₒₙ) and dissociation (koff) rate constants, an apparent equilibrium dissociation constant (Kd=koff/kₒₙ) was estimated. Due to the dimeric state of the CK construct and consequent possibility for simultaneous binding of captured scFv to both monomers in the CK dimer, the SPR setup was expected to overestimate the binding affinity.

[3] = biological target: T2, biotinylated human VWF cysteine knot …; experiment: as above
From the text: as §1

| Kd [1] | Kd [2] | Kd [3] | Binder |
| --- | --- | --- | --- |
| 0.127 nM | 2.05 nM | 2.62 nM | 399_Lib1_scFv (scFv, VH-linker-VL; not shown: C-terminal 3xFLAG and SV5 tags) scFv: QVQLVQSGAEVKKPGASVKVSCKVSGITFTSDYIHWVRQAPGKGLEWMGGMNPYSNKAIYAQKFQGRVTMTEDTSTDTAYMELSSLKSEDTAVYYCATGGLRIAARTSYFDYWGQGTLVTVSSSGGSTITSYNVYYTKLSSSGTDIQMTQSPSSVSASVGDRVTITCRASMDIAGSLAWYQQKPGKAPKLLIYDTSFRATGVPSRFSGSGSGTDFTLTISSLQPEDFANYYCQQYDNPPRLTFGGGTKVEIK |
| 0.872 nM | 0.435 nM | 2.72 nM | Lib6_P3_A8_scFv (scFv, VH-linker-VL; not shown: C-terminal 3xFLAG and SV5 tags) scFv: EVQLVQSGAEVKKPGASVKVSCKASGYRFTNYDISWVRQAPGQGLEWMGGINPSSGITIYAQKLQGRGTMTTDPSTSTAYMELRSLRSDDTAVYYCARGAAYGDYLDYWGQGTLVTVSSSGGSTITSYNVYYTKLSSSGTESALTQPASVSGSPGQSITISCTGTNLGEKYVSWYQQHPGKAPKLMIYSTSQRPSGVSNRFSGSKSGNTASLTITGLQAEDEADYYCSSYTASSTPGLVFGGGTKLTVL |
| 3.36 nM | 0.733 nM | 2.7 nM | Lib4_P2_A10_scFv (scFv, VH-linker-VL; not shown: C-terminal 3xFLAG and SV5 tags) scFv: QVQLQESGPGLVKPSQTLSLTCTVSGASLGHQYWSWIRQPPGKGLEWIGYIDTSGSTDYNPSLKSRVTMSVDTSKNQFSLKVNSVTAADTAVYYCARVANYYYYMDVWGKGTTVTVSSSGGSTITSYNVYYTKLSSSGTEIVMTQSPATLSLSPGERATLSCRASQSVSNRLAWYQQKPGQAPRLLIYDASNRATGIPARFSGSGSGTDFTLTISSLEPEDFAVYYCQQYFITPSTFGGGTKVEIK |
| 1.93 nM | 0.387 nM | 1.48 nM | Lib4_P2_A3_scFv (scFv, VH-linker-VL; not shown: C-terminal 3xFLAG and SV5 tags) scFv: QVQLQESGPGLVKPSQTLSLTCTVSGVSLSTSDYSWSWIRQPPGKGLEWIGYISPPGRSDYNPSLKSRVTMSVDTSKNQFSLKVNSVTAADTAVYYCARHSSSGWYSTYDFDSWGQGTMVTVSSSGGSTITSYNVYYTKLSSSGTEIVMTQSPATLSLSPGERATLSCRASQNIHSNLAWYQQKPGQAPRLLIYGATTRATGIPARFSGSGSGTDFTLTISSLEPEDFAVYYCQQSYTTPLTFGGGTKVEIK |
| 1.4 nM | 1.21 nM | 1.77 nM | 96_Lib4_scFv (scFv, VH-linker-VL; not shown: C-terminal 3xFLAG and SV5 tags) scFv: QVQLQESGPGLVKPSQTLSLTCTVSGESFSTSYWSWIRQPPGKGLEWIGYITHSGYTDYNPSLKSRVTMSVDTSKNQFSLKVNSVTAADTAVYYCARGGRFPFWYFDLWGRGSLVTVSSSGGSTITSYNVYYTKLSSSGTEIVMTQSPATLSLSPGERATLSCRASRSIGSNLAWYQQKPGQAPRLLIYGATTRATGIPARFSGSGSGTDFTLTISSLEPEDFAVYYCQQYKNDATFGGGTKVEIK |
| 1.32 nM | 0.017 nM | 1.41 nM | Lib6_P3_A1_scFv (scFv, VH-linker-VL; not shown: C-terminal 3xFLAG and SV5 tags) scFv: QVQLVQSGAEVKKPGASVKVSCKVSGDTLSNYAIHWVRQAPGKGLEWMGGINPNAGTTIYAQKFQGRVTMTEDTSTDTAYMELSSLKSEDTAVYYCARDSSSWCPVGYYYYYMDVWGKGTTVTVSSSGGSTITSYNVYYTKLSSSGTDIQMTQSPSSVSASVGDRVTITCRASQSIGDFLAWYQQKPGKAPKLLIYDASHLQTGVPSRFSGSGSGTDFTLTISSLQPEDFANYYCQQTSTIPPTFGGGTKVEIK |
| 2.12 nM | 0.48 nM | 1.89 nM | Lib4_P2_B1_scFv (scFv, VH-linker-VL; not shown: C-terminal 3xFLAG and SV5 tags) scFv: QVQLVQSGAEVKKPGASVKVSCKVSGDTLSNYAIHWVRQAPGKGLEWMGGINPNAGTTIYAQKFQGRVTMTEDTSTDTAYMELSSLKSEDTAVYYCARDSSSWCPVGYYYYYMDVWGKGTTVTVSSSGGSTITSYNVYYTKLSSSGTDIQMTQSPSSVSASVGDRVTITCRASQSIGDFLAWYQQKPGKAPKLLIYDASHLQTGVPSRFSGSGSGTDFTLTISSLQPEDFANYYCQQTSTIPPTFGGGTKVEIK |
| 0.604 nM | 0.305 nM | 2.05 nM | Lib4_P2_A2_scFv (scFv, VH-linker-VL; not shown: C-terminal 3xFLAG and SV5 tags) scFv: QVQLVQSGAEVKKPGASVKVSCKVSGDTLSNYAIHWVRQAPGKGLEWMGGINPNAGTTIYAQKFQGRVTMTEDTSTDTAYMELSSLKSEDTAVYYCARDSSSWCPVGYYYYYMDVWGKGTTVTVSSSGGSTITSYNVYYTKLSSSGTDIQMTQSPSSVSASVGDRVTITCRASQSIGDFLAWYQQKPGKAPKLLIYDASHLQTGVPSRFSGSGSGTDFTLTISSLQPEDFANYYCQQTSTIPPTFGGGTKVEIK |
| 0.659 nM | 1.96 nM | 1.72 nM | Lib6_P3_E10_scFv (scFv, VH-linker-VL; not shown: C-terminal 3xFLAG and SV5 tags) scFv: QVQLVQSGAEVKKPGASVKVSCKVSGDTLSNYAIHWVRQAPGKGLEWMGGINPNAGTTIYAQKFQGRVTMTEDTSTDTAYMELSSLKSEDTAVYYCARDSSSWCPVGYYYYYMDVWGKGTTVTVSSSGGSTITSYNVYYTKLSSSGTDIQMTQSPSSVSASVGDRVTITCRASQSIGDFLAWYQQKPGKAPKLLIYDASHLQTGVPSRFSGSGSGTDFTLTISSLQPEDFANYYCQQTSTIPPTFGGGTKVEIK |
| 1.41 nM | 0.974 nM | 1.76 nM | 4035_Lib1_scFv (scFv, VH-linker-VL; not shown: C-terminal 3xFLAG and SV5 tags) scFv: QVQLVQSGAEVKKPGASVKVSCKVSGYAFPSYGIHWVRQAPGKGLEWMGGISAFTGDTIYAQKFQGRVTMTEDTSTDTAYMELSSLKSEDTAVYYCASGPTNVLTGLMESAEYFQHWGQGTLVTVSSSGGSTITSYNVYYTKLSSSGTDIQMTQSPSSVSASVGDRVTITCRASQGISRDLAWYQQKPGKAPKLLIYGASGRATGVPSRFSGSGSGTDFTLTISSLQPEDFANYYCQQSYITPTTFGGGTKVEIK |
| 0.621 nM | 1.17 nM | 2.79 nM | 965_Lib4_scFv (scFv, VH-linker-VL; not shown: C-terminal 3xFLAG and SV5 tags) scFv: QVQLQESGPGLVKPSQTLSLTCTVSGASFGDNYWSWIRQPPGKGLEWIGYIDTSGSSDYNPSLKSRVTMSVDTSKNQFSLKVNSVTAADTAVYYCARDALGYYYMDVWGKGTTVTVSSSGGSTITSYNVYYTKLSSSGTEIVMTQSPATLSLSPGERATLSCRASQGISGRLAWYQQKPGQAPRLLIYDASARASGIPARFSGSGSGTDFTLTISSLEPEDFAVYYCQQYGTSPYTFGGGTKVEIK |
| 3.87 nM | 0.803 nM | 1.84 nM | 2301_Lib4_scFv (scFv, VH-linker-VL; not shown: C-terminal 3xFLAG and SV5 tags) scFv: QVQLQESGPGLVKPSQTLSLTCTVSGASISTSDHSWSWIRQPPGKGLEWIGYIRDTGSTDYNPSLKSRVTMSVDTSKNQFSLKVNSVTAADTAVYYCAISSTERWKQSFGVDTEYFQHWGQGTLVTVSSSGGSTITSYNVYYTKLSSSGTEIVMTQSPATLSLSPGERATLSCRASRYVSTNLAWYQQKPGQAPRLLIYDAVTRAPGIPARFSGSGSGTDFTLTISSLEPEDFAVYYCQQYHSLPLIFGGGTKVEIK |
| 0.829 nM | 1.51 nM | 1.5 nM | 487_Lib1_scFv (scFv, VH-linker-VL; not shown: C-terminal 3xFLAG and SV5 tags) scFv: QVQLVQSGAEVKKPGASVKVSCKVSGYTFTSHIIHWVRQAPGKGLEWMGGMNPYSNKAIYAQKFQGRVTMTEDTSTDTAYMELSSLKSEDTAVYYCARDASDYGDYGYYYYYMDVWGKGTTVTVSSSGGSTITSYNVYYTKLSSSGTDIQMTQSPSSVSASVGDRVTITCRASQSIGDFLAWYQQKPGKAPKLLIYDASHLQTGVPSRFSGSGSGTDFTLTISSLQPEDFANYYCQQTSTIPPTFGGGTKVEIK |
| 0.731 nM | 0.758 nM | 1.76 nM | 256_Lib8_scFv (scFv, VH-linker-VL; not shown: C-terminal 3xFLAG and SV5 tags) scFv: EVQLVESGGGLVQPGRSLRLSCAASGFTVSSNAMHWVRQAPGKGLEWVSAIGTFADTDYADSVEGRFTISRDNAKNSLYLQMNSLRAEDTAVYYCAREGAAAGTNFDYWGQGTLVTVSSSGGSTITSYNVYYTKLSSSGTDIQMTQSPSSLSASVGDRVTITCRASQGIRSYLAWYQQKPGKAPKLLIYGASTLEGGVPSRFSGSGSGTDFTLTISSLQPEDVATYYCQQSYSTPPKFGGGTKVEIK |
| 0.443 nM | 0.656 nM | 2.85 nM | 27_Lib4_scFv (scFv, VH-linker-VL; not shown: C-terminal 3xFLAG and SV5 tags) scFv: QVQLQESGPGLVKPSQTLSLTCTVSGASFGDHYWSWIRQPPGKGLEWIGYIDATGSIDYNPSLKSRVTMSVDTSKNQFSLKVNSVTAADTAVYYCARVASYYYYMDVWGKGTTVTVSSSGGSTITSYNVYYTKLSSSGTEIVMTQSPATLSLSPGERATLSCRASQSITGSYLAWYQQKPGQAPRLLIYGASDRAPGIPARFSGSGSGTDFTLTISSLEPEDFAVYYCQQYGSFPYTFGGGTKVEIK |
| 1.91 nM | 1.36 nM | 2.22 nM | 4956_Lib1_scFv (scFv, VH-linker-VL; not shown: C-terminal 3xFLAG and SV5 tags) scFv: QVQLVQSGAEVKKPGASVKVSCKVSGYTLTSNYIHWVRQAPGKGLEWMGGFNPSSGSTIYAQKFQGRVTMTEDTSTDTAYMELSSLKSEDTAVYYCARTLYDFWSGYLDAFDIWGQGTMVTVSSSGGSTITSYNVYYTKLSSSGTDIQMTQSPSSVSASVGDRVTITCRASQNIRSSLAWYQQKPGKAPKLLIYAASNLEPGVPSRFSGSGSGTDFTLTISSLQPEDFANYYCQQYEDTPLTFGGGTKVEIK |
| 1.82 nM | 3.16 nM | 2.22 nM | 11485_Lib1_scFv (scFv, VH-linker-VL; not shown: C-terminal 3xFLAG and SV5 tags) scFv: QVQLVQSGAEVKKPGASVKVSCKVSGAPSAAIIHWVRQAPGKGLEWMGGFTQIFGTAIYAQKFQGRVTMTEDTSTDTAYMELSSLKSEDTAVYYCAREGIGGHDAFDIWGQGTMVTVSSSGGSTITSYNVYYTKLSSSGTDIQMTQSPSSVSASVGDRVTITCRASQDISKNLAWYQQKPGKAPKLLIYKASKLESGVPSRFSGSGSGTDFTLTISSLQPEDFANYYCLHDYTYPPTFGGGTKVEIK |
